In patent US20230071765A1, “COMPOSITIONS HAVING THIOREDOXIN ACTIVITY AND RELATED METHODS” (ORPRO THERAPEUTICS, INC., priority 2020, published 2023):

Tests used:
[1] = lyophilized from 9% sucrose, 1.7 mM EDTA, pH 5.2; 40° C. for six months; cited from earlier work
rats = conditions: rat, in vivo; cited from earlier work
[2] = system: IL-6 and TNF-alpha in HBE-ALI from healthy and CF donors; experiment: inflammatory cytokine release in HBE-ALI cultures (ELISA); format: cell-based, human; conditions: for effect on the inflammatory effect of saline: CF HBE-ALI
Experimental: Nasal airway epithelial cells from normal healthy volunteers or CF subjects were cultured in serum-free media at an air-liquid interface with mucociliary differentiation, based on methods adapted from the approach of Schlegel and colleagues (Suprynowicz, F. A., et al., Proc Natl Acad Sci USA, 2012, 109(49): p. 20035-40; Becker, M. N., et al., Am J Respir Crit Care Med, 2004, 169(5): p. 645-53). A number of unique CF and healthy control specimens were collected, expanded, and cryopreserved using this technique. 30 wells were cultured to differentiation at ALI for over 30 days from each of three unique normal or CF donors (homozygous for F508del). Triplicate cultures were exposed at the apical surface to PBS, native Trx, or ORP-100 and both apical and basolateral media samples were collected at 4 and 24 hours after challenge. Apical collection occurred by placing 200 uL of sterile PBS on the apical surface and recovering this after 15 min incubation. ELISA for IL-6 was performed for each sample in duplicate and others were measured using a multiplexed assay. Media was centrifuged to remove debris and stored at −80 C until ELISA analysis.
FIG. 8: Levels of IL-6 or TNFα induced after 24 hr in the basolateral ALI media of primary HBE cultures from nasal epithelia of non-CF (left series of bars) and CF donors (right series of bars). Delivery: apical-surface bolus application for 15 min of 200 uL volumes of control or test article solutions. PBS: 0.9% phosphate-buffered saline negative vehicle control (black bars); ORP100-1000: 1 mM ORP-100 in PBS (solid dark bars); […] uM ORP-100 in PBS (solid light bars); Trx-1000: 1 mM native thioredoxin-1 in PBS (dark hatched bars); Trx-100: 100 uM native thioredoxin-1 in PBS (light hatched bars). All concentrations reflect volumes delivered to the HBE apical surface.

[3] = thiol pKa (acid-dissociation constant); format: physicochemical; conditions: verified experimentally, data not shown
Text: The human CF airway surface liquid is approximately 0.8 pH units more acidic than that of unaffected individuals due to the loss of bicarbonate-mediated buffering of proton secretion (Garland A L, Walton W G, Coakley R D, et al., 2013, Molecular basis for pH-dependent mucosal dehydration in cystic fibrosis airways. PNAS 110:15973-8; Shah V S, Meyerholz D K, Tang X X, et al., 2016, Airway acidification initiates host defense abnormalities in cystic fibrosis mice, Science 351:503-7). This has consequences for the clinical use of reducing agents to treat condensed, abnormal mucus. […] Cys thiol pKa values range from pH 8.5 (cysteamine) to pH 9.5 (NAC). In marked contrast to these classical thiols, the structurally-stabilized pKa of the Trx active site Cys32 is two to three logs lower (pH 6.1-6.3), allowing high activity even at acidic CF airway pH (FIG. 2).

[4] = stability analysis, lyophilized vs solution (DTNB and SEC-HPLC); format: physicochemical; conditions: lyophilized form, six months at 40° C.
Experimental: Prior work, e.g. WO 2006/090127, teaches compositions for maintenance of thioredoxin in the reduced state. Significant experimentation was required to derive compositions able to keep thioredoxin reduced during storage, and these compositions were complex and required saccharide derivatives and EDTA as excipients. […] ORP-100 and ORP100S proteins were reduced with 100 mM DTT and exchanged over a NAP-5 column into volatile 20 mM ammonium acetate buffer at pH 5.5 to remove residual reductant. Half of the material was frozen at −80° C. then lyophilized while the remainder was kept in solution at either 5° C. or 40° C. for various time points (“PH5.5”). Lyophilized protein was reconstituted back into 20 mM ammonium acetate pH 5.5 immediately prior to evaluation at each time point (“Lyophilized”). Stability was assessed by measuring both free SH groups (DTNB chromogenic assay) and the percent monomers (SEC-HPLC).
For FIG. 3: PH5.5: ORP-100 or ORP100S protein maintained in liquid formulation of 20 mM ammonium acetate, pH 5.5 for 0, 3, 7, 14, 21, 28, 90, or 180 days. Lyophilized: ORP-100 or ORP100S protein stored in the lyophilized form at 5° C. or 40° C. for the 0, 3, 7, 14, 21, 28, 90, or 180 days and assayed following reconstitution in 20 mM ammonium acetate, pH 5.5. Percent free sulfhydryl (reduction state) at 5° C. Second panel: Percent monomer determined by SEC assay at 5° C. Third panel: Percent free sulfhydryl at 40° C. Fourth panel: Percent monomer determined by SEC assay at 40° C.

Sprague-Dawley rats = experiment: nebulized aerosol inhalation in rats, inflammatory potential and toxicity; format: in vivo, rat; conditions: for neutrophil influx (sucrose/EDTA formulation effect): nebulized aerosol; for adverse test article effects (clinical observations, BALF chemistry, cell count, differential, lung cytokines, macroscopic and microscopic findings): target delivered doses 10 mg/kg and 40 mg/kg, aerosol, 1, 4 or 20 hours post exposure
Experimental: This example evaluated and compared the in vivo inflammatory potential among three forms of C35S monothiol Trx (oxidized ORP-100, reduced ORP-100, and reduced ORP100S) formulated in the sucrose/EDTA formulation composition described in PCT WO 2006/090127 and delivered to normal rats as nebulized aerosols at doses of […] and 40 mg/kg.
All three forms of ORP-100 were lyophilized following reduction with DTT and formulated in sucrose buffer (9% sucrose 1.17 mM EDTA pH 5.2). All test articles were evaluated at low (10 mg/kg) and high (40 mg/kg) target delivered doses. The test articles were administered to Charles River Sprague-Dawley rats via inhalation as an aerosol. The aerosol of each of the test articles was produced by a commercially available vibrating mesh nebulizer whose output was attached to a nose-only exposure system.
Target doses were achieved via modulation of the aerosol exposure time while maintaining the aerosol concentration constant. Animals in Low Dose groups received a single dose of test article during a 20 minute exposure to achieve a target delivered dose of 10 mg/kg and deposited dose of 1 mg/kg. Animals in High Dose groups received a single dose of test article during a 75 minute exposure to achieve a target delivered dose of 40 mg/kg and target deposited dose of 4 mg/kg.
Animals in each study group were evaluated for potential toxicity by measuring various parameters including: clinical signs, body weight, clinical pathology (BALF cell counts, LDH and albumin measurements), lung tissue cytokines, lung weights, gross pathology, and microscopic pathology of respiratory target tissues. Additionally, three animals in each Low Dose group had lung tissues collected for immunohistochemistry (Alizèe Pathology, Thurmont, M D). Three (3) animals in each Low Dose group were to be euthanized at 1 hour and 4 hours post exposure for blood and tissue collections. Four (4) animals in each High Dose group were euthanized at 4 and 20 hours post exposure for blood and tissue collections.

B1: thioredoxin: native human thioredoxin-1, 12 kDa redox protein with Cys-Gly-Pro-Cys active site (protein)
chain: VKQIESKTAFQEALDAAGDKLVVVDFSATWCGPCKMIKPFFHSLSEKYSNVIFLEVDVDDCQDVASECEVKCMPTFQFFKKGQKVGEFSGANKEKLEATINELV
retention of starting activity [1]: almost complete retention of starting activity
neutrophil influx and inflammatory cytokine release (rats): high levels of neutrophil influx and inflammatory cytokine release

B2: oxidized thioredoxin: oxidized thioredoxin inactive protein control of Rancourt et al. 2007 (protein, UniProt P10599 2-105, looked up)
Thioredoxin: VKQIESKTAFQEALDAAGDKLVVVDFSATWCGPCKMIKPFFHSLSEKYSNVIFLEVDVDDCQDVASECEVKCMPTFQFFKKGQKVGEFSGANKEKLEATINELV
modifications: oxidized
BALF cell count and cytokine results (rats): identical BALF cell count and cytokine results as normal saline alone

B3: ORP-100: thioredoxin protein having a monothiol active site in which the cysteine at position 35 has been replaced with serine (protein, UniProt P10599 2-105, looked up, variant C35S)
Thioredoxin: VKQIESKTAFQEALDAAGDKLVVVDFSATWCGPSKMIKPFFHSLSEKYSNVIFLEVDVDDCQDVASECEVKCMPTFQFFKKGQKVGEFSGANKEKLEATINELV
effect on the inflammatory effect of saline [2]: abrogated the inflammatory effect of saline
anti-inflammatory effect vs. PBS vehicle alone ([2]; concentrations above 100 uM, in normal (isotonic) PBS): significant anti-inflammatory effect
induction of IL-6 and TNF-alpha ([2]; reduced form, in PBS, apical application): non-inflammatory
pKa compared to native Trx [3]: same pKa as native Trx
storage stability (free SH, percent monomer) [4]: excellent storage stability
differences in BALF LDH, albumin, cell counts, differential counts and lung tissue cytokines vs. oxidized ORP-100 control groups (Sprague-Dawley rats; low and high dose aerosol): unremarkable
neutrophil influx (sucrose/EDTA formulation effect) (Sprague-Dawley rats): partially able to mitigate the formulation effect
adverse test article effects (clinical observations, BALF chemistry, cell count, differential, lung cytokines, macroscopic and microscopic findings) (Sprague-Dawley rats): no evidence of adverse test article effects

B4: oxidized ORP-100: oxidized form of ORP-100, control lacking thioredoxin activity (protein, UniProt P10599 2-105, looked up, variant C35S)
Thioredoxin: VKQIESKTAFQEALDAAGDKLVVVDFSATWCGPSKMIKPFFHSLSEKYSNVIFLEVDVDDCQDVASECEVKCMPTFQFFKKGQKVGEFSGANKEKLEATINELV
modifications: oxidized
effect on the inflammatory effect of saline [2]: not
neutrophil influx (sucrose/EDTA formulation effect) (Sprague-Dawley rats): induced
adverse test article effects (clinical observations, BALF chemistry, cell count, differential, lung cytokines, macroscopic and microscopic findings) (Sprague-Dawley rats): no evidence of adverse test article effects
